Test results as given in patent publication US20260250388A1 (published 2026).

T1: KRAS G12V peptide on HLA-A*11:01 (human)
T1 peptide: VVVGAVGVGK

T2: KRAS G12V peptide on HLA-A*11:01 (human)
T2 peptide: VVGAVGVGK


Legend:
[1] = target: T1, KRAS G12V peptide on HLA-A*11:01; experiment: killing
Excerpt: A lentiviral vector containing the TCR gene of the present invention was constructed and used to transduce T cells. The T cells transduced with different TCRs were co-cultured with: (1) HLA-A*11:01-expressing K562 cells loaded with different peptides (G12V-9 peptide: […] (SEQ ID NO: 91), G12V-10 peptide: […] (SEQ ID NO: 92), or WT peptide: […] (SEQ ID NO: 93)+[…] (SEQ ID NO: 94)); and (2) BxPC3 cells expressing HLA-A*11:01, co-expressing HLA-A*11:01 and KRAS G12V, or co-expressing HLA-A*11:01 and KRAS G12D (effector cell:target cell=5:1). After co-incubation for 16 h, the killing ability of T cells against target cells was evaluated by detecting LDH release. Statistical data are shown in FIGS. 2A and 2B (GraphPad Prism 8.0.1 software).

[2] = target: T2, KRAS G12V peptide on HLA-A*11:01; experiment: multimer staining
[3] = target: HLA-A*11:01 / KRAS G12V 10-mer peptide … complex (human); experiment: cell-based or functional assay
[4] = target: HLA-A*11:01 / KRAS G12V 9-mer peptide … complex (human); experiment: cell-based or functional assay
[5] = target: T1, KRAS G12V peptide on HLA-A*11:01; experiment: CD69 by flow cytometry on TCR1-transduced Jurkat cells; K562-A*11:01 loaded with peptide at 10^-11 to 10^-6 M; FIG. 4C; full-length, on cells
Description: (§1) EC₅₀ values of different TCRs were assessed by spot numbers of IFN-γ release and CD69 expression after co-culture of specific TCR-transduced T cells with target cells loaded with graded concentrations of KRAS G12V-9 peptide ([…]) (SEQ ID NO: 91).

[6] = target: T2, KRAS G12V peptide on HLA-A*11:01; experiment: as above
Description: as §1

binding result [2] | Binder | binding result [1] | further results
recognises | TCR5 (TCR, V domains shown) Valpha: GEDVEQSLFLSVREGDSSVINCTYTDSSSTYLYWYKQEPGAGLQLLTYIFSNMDMKQDQRLTVLLNKKDKHLSLRIADTQTGDSAIYFCAESPGGGADGLTFGKGTHLIIQP Vbeta: GAVVSQHPSWVICKSGTSVKIECRSLDFQATTMFWYRQFPKQSLMLMATSNEGSKATYEQGVEKDKFLINHASLTLSTLTVTSAHPEDSSFYICSAPRGWAAGVYGYTFGSGTRLTVV | recognises | –
recognises | TCR6 (TCR, V domains shown) Valpha: AQSVTQPDIHITVSEGASLELRCNYSYGATPYLFWYVQSPGQGLQLLLKYFSGDTLVQGIKGFEAEFKRSQSSFNLRKPSVHWSDAAEYFCAVGASREYGNKLVFGAGTILRVKS Vbeta: NAGVMQNPRHLVRRRGQEARLRCSPMKGHSHVYWYRQLPEEGLKFMVYLQKENIIDESGMPKERFSAEFPKEGPSILRIQQVVRGDSAAYFCASSPGGLLHFGNGTRLTVT | recognises | –
recognises | TCR8 (TCR, V domains shown) Valpha: SQQGEEDPQALSIQEGENATMNCSYKTSINNLQWYRQNSGRGLVHLILIRSNEREKHSGRLRVTLDTSKKSSSLLITASRAADTASYFCATDAGGGADGLTFGKGTHLIIQP Vbeta: DSGVTQTPKHLITATGQRVTLRCSPRSGDLSVYWYQQSLDQGLQFLIQYYNGEERAKGNILERFSAQQFPDLHSELNLSSLELGDSALYFCASSESRDSGNTIYFGEGSWLTVV | recognises | –
recognises | TCR9 (TCR, V domains shown) Valpha: SQQGEEDPQALSIQEGENATMNCSYKTSINNLQWYRQNSGRGLVHLILIRSNEREKHSGRLRVTLDTSKKSSSLLITASRAADTASYFCATDSGGGADGLTFGKGTHLIIQP Vbeta: DSGVTQTPKHLITATGQRVTLRCSPRSGDLSVYWYQQSLDQGLQFLIQYYNGEERAKGNILERFSAQQFPDLHSELNLSSLELGDSALYFCASTPGRDSGNTIYFGEGSWLTVV | recognises | –
– | TCR1 (TCR) TCR alpha: SLAKTTQPISMDSYEGQEVNITCSHNNIATNDYITWYQQFPSQGPRFIIQGYKTKVTNEVASLFIPADRKSSTLSLPRVSLSDTAVYYCLVGALSSSWYGQNFVFGPGTRLSVLPYIQNPDPAVYQLRDSKSSDKSVCLFTDFDSQTNVSQSKDSDVYITDKTVLDMRSMDFKSNSAVAWSNKSDFACANAFNNSIIPEDTFFPSPESSCDVKLVEKSFETDTNLNFQNLSVIGFRILLLKVAGFNLLMTLRLWSS TCR beta: DTAVSQTPKYLVTQMGNDKSIKCEQNLGHDTMYWYKQDSKKFLKIMFSYNNKELIINETVPNRFSPKSPDKAHLNLHINSLELGDSAVYFCASSQSGAQDGYTFGSGTRLTVVEDLNKVFPPEVAVFEPSEAEISHTQKATLVCLATGFFPDHVELSWWVNGKEVHSGVSTDPQPLKEQPALNDSRYCLSSRLRVSATFWQNPRNHFRCQVQFYGLSENDEWTQDRAKPVTQIVSAEAWGRADCGFTSVSYQQGVLSATILYEILLGKATLYAVLVSALVLMAMVKRKDF | – | EC50 of CD69 expression of TCR-transduced Jurkat cells after co-culture with K562-A*11:01 loaded with graded peptide concentrations (FIG. 4C) [3]: 31.3 nM; fold difference of EC50 (CD69 expression) between the 10-mer and the 9-mer peptide [3]: 10 fold; EC50 of CD69 expression of TCR-transduced Jurkat cells after co-culture with K562-A*11:01 loaded with graded peptide concentrations (FIG. 4C) [4]: 2.24 nM
recognises | TCR4 (TCR, V domains shown) Valpha: QKEVEQNSGPLSVPEGAIASLNCTYSDRGSQSFFWYRQYSGKSPELIMFIYSNGDKEDGRFTAQLNKASQYVSLLIRDSQPSDSATYLCAVERGSTLGRLYFGRGTQLTVWP Vbeta: GAGVSQSPRYKVTKRGQDVTLRCDPISSHATLYWYQQALGQGPEFLTYFNYEAQPDKSGLPSDRFSAERPEGSISTLTIQRTEQRDSAMYRCASSLSSPTGGPINEQFFGPGTRLTVL | recognises | –
recognises | TCR2 (TCR, V domains shown) Valpha: DQQVKQNSPSLSVQEGRISILNCDYTNSMFDYFLWYKKYPAEGPTFLISISSIKDKNEDGRFTVFLNKSAKHLSLHIVPSQPGDSAVYFCAAKDNAGNMLTFGGGTRLMVKP Vbeta: KAGVTQTPRYLIKTRGQQVTLSCSPISGHRSVSWYQQTPGQGLQFLFEYFSETQRNKGNFPGRFSGRQFSNSRSEMNVSTLELGDSALYLCASSLGTAEAFFGQGTRLTVV | recognises | –
recognises | TCR7 (TCR, V domains shown) Valpha: DQQVKQNSPSLSVQEGRISILNCDYTNSMFDYFLWYKKYPAEGPTFLISISSIKDKNEDGRFTVFLNKSAKHLSLHIVPSQPGDSAVYFCAGKTNTGNQFYFGTGTSLTVIP Vbeta: KAGVTQTPRYLIKTRGQQVTLSCSPISGHRSVSWYQQTPGQGLQFLFEYFSETQRNKGNFPGRFSGRQFSNSRSEMNVSTLELGDSALYLCASSSGHPEAFFGQGTRLTVV | recognises | –
– | TCR1 (TCR, V domains shown) Valpha: LAKTTQPISMDSYEGQEVNITCSHNNIATNDYITWYQQFPSQGPRFIIQGYKTKVTNEVASLFIPADRKSSTLSLPRVSLSDTAVYYCLVGALSSSWYGQNFVFGPGTRLSVLP Vbeta: DTAVSQTPKYLVTQMGNDKSIKCEQNLGHDTMYWYKQDSKKFLKIMFSYNNKELIINETVPNRFSPKSPDKAHLNLHINSLELGDSAVYFCASSQSGAQDGYTFGSGTRLTVV | – | EC50 of peptide [5]: 31.3 nM; EC50 of peptide [6]: 2.24 nM
recognises | TCR3 (TCR, V domains shown) Valpha: DQQVKQNSPSLSVQEGRISILNCDYTNSMFDYFLWYKKYPAEGPTFLISISSIKDKNEDGRFTVFLNKSAKHLSLHIVPSQPGDSAVYFCAANSGYALNFGKGTSLLVTP Vbeta: KAGVTQTPRYLIKTRGQQVTLSCSPISGHRSVSWYQQTPGQGLQFLFEYFSETQRNKGNFPGRFSGRQFSNSRSEMNVSTLELGDSALYLCASSLGGVGNEQFFGPGTRLTVL | recognises | –
